Reference: the supplement of paper PMC11316812
± gives the standard deviation of the averaged measurements.

What was measured:
hTERT-HMEC = assay: percentage of EdU-negative (G0-arrested) nuclei per well, 72 h; higher = more G0 arrest; conditions: reference: sequence is the full UniProt precursor, the tested protein was the secreted form or ectodomain
MCF7 = assay: as above; conditions: reference: sequence is the full UniProt precursor, the tested protein was the secreted form or ectodomain
[1] = protein concentration 0.0197775 µM
[2] = protein concentration 0.197775 µM
[3] = protein concentration 0.0225 µM
[4] = protein concentration 0.01925 µM
[5] = protein concentration 0.1925 µM
[6] = protein concentration 0.02102 µM
[7] = protein concentration 0.2102 µM
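Further: secreted proteins added to cultured cells, EdU pulse at the end, nuclei found by Hoechst imaging, EdU status from nuclear versus surrounding ring intensity ratio, PBS as neutral control.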

| Substance | percentage of EdU-negative (hTERT-HMEC; [3]) | percentage of EdU-negative (hTERT-HMEC; protein concentration 0.225 µM) | percentage of EdU-negative (MCF7; [3]) | percentage of EdU-negative (MCF7; protein concentration 0.225 µM) | also measured |
| --- | --- | --- | --- | --- | --- |
| MALLWGLLVLSWSCLQGPCSVFSPVSAMEPLGRQLTSGPNQEQVSPLTLLKLGNQEPGGQTALKSPPGVCSRDPTPEQTHRLARAMMAFTADLFSLVAQTSTCPNLILSPLSVALALSHLALGAQNHTLQRLQQVLHAGSGPCLPHLLSRLCQDLGPGAFRLAARMYLQKGFPIKEDFLEQSEQLFGAKPVSLTGKQEDDLANINQWVKEATEGKIQEFLSGLPEDTVLLLLNAIHFQGFWRNKFDPSLTQRDSFHLDEQFTVPVEMMQARTYPLRWFLLEQPEIQVAHFPFKNNMSFVVLVPTHFEWNVSQVLANLSWDTLHPPLVWERPTKVRLPKLYLKHQMDLVATLSQLGLQELFQAPDLRGISEQSLVVSGVQHQSTLELSEVGVEAAAATSIAMSRMSLSSFSVNRPFLFFIFEDTTGLPLFVGSVRNPNPSAPRELKEQQDSPGNKDFLQSLKGFPRGDKLFGPDLKLVPPMEEDYPQFGSPK | – | – | – | – | percentage of EdU-negative (hTERT-HMEC; [1]): 4.44 ± 1.1%; percentage of EdU-negative (hTERT-HMEC; [2]): 10.5 ± 1%; percentage of EdU-negative (MCF7; [1]): 24.1 ± 0.71%; percentage of EdU-negative (MCF7; [2]): 29.1 ± 1.3% |
| Q9BYZ8 | – | – | – | – | percentage of EdU-negative (hTERT-HMEC; protein concentration 0.02 µM): 5.55 ± 0.64%; percentage of EdU-negative (hTERT-HMEC; protein concentration 0.2 µM): 19.9 ± 4.5%; percentage of EdU-negative (MCF7; protein concentration 0.02 µM): 24.8 ± 0.7%; percentage of EdU-negative (MCF7; protein concentration 0.2 µM): 29.6 ± 2.5% |
| MERASLIQKAKLAEQAERYEDMAAFMKGAVEKGEELSCEERNLLSVAYKNVVGGQRAAWRVLSSIEQKSNEEGSEEKGPEVREYREKVETELQGVCDTVLGLLDSHLIKEAGDAESRVFYLKMKGDYYRYLAEVATGDDKKRIIDSARSAYQEAMDISKKEMPPTNPIRLGLALNFSVFHYEIANSPEEAISLAKTTFDEAMADLHTLSEDSYKDSTLIMQLLRDNLTLWTADNAGEEGGEAPQEPQS | 4.93 ± 0.53% | 5.22 ± 0.073% | 25.3 ± 4.8% | 20.9 ± 1.9% | – |
| MRPVSVWQWSPWGLLLCLLCSSCLGSPSPSTGPEKKAGSQGLRFRLAGFPRKPYEGRVEIQRAGEWGTICDDDFTLQAAHILCRELGFTEATGWTHSAKYGPGTGRIWLDNLSCSGTEQSVTECASRGWGNSDCTHDEDAGVICKDQRLPGFSDSNVIEVEHHLQVEEVRIRPAVGWGRRPLPVTEGLVEVRLPDGWSQVCDKGWSAHNSHVVCGMLGFPSEKRVNAAFYRLLAQRQQHSFGLHGVACVGTEAHLSLCSLEFYRANDTARCPGGGPAVVSCVPGPVYAASSGQKKQQQSKPQGEARVRLKGGAHPGEGRVEVLKASTWGTVCDRKWDLHAASVVCRELGFGSAREALSGARMGQGMGAIHLSEVRCSGQELSLWKCPHKNITAEDCSHSQDAGVRCNLPYTGAETRIRLSGGRSQHEGRVEVQIGGPGPLRWGLICGDDWGTLEAMVACRQLGLGYANHGLQETWYWDSGNITEVVMSGVRCTGTELSLDQCAHHGTHITCKRTGTRFTAGVICSETASDLLLHSALVQETAYIEDRPLHMLYCAAEENCLASSARSANWPYGHRRLLRFSSQIHNLGRADFRPKAGRHSWVWHECHGHYHSMDIFTHYDILTPNGTKVAEGHKASFCLEDTECQEDVSKRYECANFGEQGITVGCWDLYRHDIDCQWIDITDVKPGNYILQVVINPNFEVAESDFTNNAMKCNCKYDGHRIWVHNCHIGDAFSEEANRRFERYPGQTSNQII | – | – | – | – | percentage of EdU-negative (hTERT-HMEC; [4]): 4.9 ± 0.65%; percentage of EdU-negative (hTERT-HMEC; [5]): 39.2 ± 1.2%; percentage of EdU-negative (MCF7; [4]): 25.3 ± 1.3%; percentage of EdU-negative (MCF7; [5]): 31.5 ± 2.3% |
| MSSFSTTTVSFLLLLAFQLLGQTRANPMYNAVSNADLMDFKNLLDHLEEKMPLEDEVVPPQVLSEPNEEAGAALSPLPEVPPWTGEVSPAQRDGGALGRGPWDSSDRSALLKSKLRALLTAPRSLRRSSCFGGRMDRIGAQSGLGCNSFRY | 4.9 ± 0.49% | 6.92 ± 0.56% | 25 ± 2.1% | 25.7 ± 1.1% | – |
| MVAALLGGGGEARGGTVPGAWLCLMALLQLLGSAPRGSGLAHGRRLICWQALLQCQGEPECSYAYNQYAEACAPVLAQHGGGDAPGAAAAAFPASAASFSSRWRCPSHCISALIQLNHTRRGPALEDCDCAQDENCKSTKRAIEPCLPRTSGGGAGGPGAGGVMGCTEARRRCDRDSRCNLALSRYLTYCGKVFNGLRCTDECRTVIEDMLAMPKAALLNDCVCDGLERPICESVKENMARLCFGAELGNGPGSSGSDGGLDDYYDEDYDDEQRTGGAGGEQPLDDDDGVPHPPRPGSGAAASGGRGDLPYGPGRRSSGGGGRLAPRGAWTPLASILLLLLGPLF | 4.96 ± 0.62% | 5.68 ± 0.97% | 24.6 ± 0.7% | 26.9 ± 0.34% | – |
| MVLCWLLLLVMALPPGTTGVKDCVFCELTDSMQCPGTYMHCGDDEDCFTGHGVAPGTGPVINKGCLRATSCGLEEPVSYRGVTYSLTTNCCTGRLCNRAPSSQTVGATTSLALGLGMLLPPRLL [Q8TDM5] | 4.81 ± 0.12% | 5.43 ± 0.73% | 27.6 ± 0.57% | 25.47 ± 0.088% | – |
| MARPGQRWLGKWLVAMVVWALCRLATPLAKNLEPVSWSSLNPKFLSGKGLVIYPKIGDKLDIICPRAEAGRPYEYYKLYLVRPEQAAACSTVLDPNVLVTCNRPEQEIRFTIKFQEFSPNYMGLEFKKHHDYYITSTSNGSLEGLENREGGVCRTRTMKIIMKVGQDPNAVTPEQLTTSRPSKEADNTVKMATQAPGSRGSLGDSDGKHETVNQEEKSGPGASGGSSGDPDGFFNSKVALFAAVGAGCVIFLLIIIFLTVLLLKLRKRHRKHTQQRAAALSLSTLASPKGGSGTAGTEPSDIIIPLRTTENNYCPHYEKVSGDYGHPVYIVQEMPPQSPANIYYKV | – | – | – | – | percentage of EdU-negative (hTERT-HMEC; [6]): 5.93 ± 0.36%; percentage of EdU-negative (hTERT-HMEC; [7]): 5.52 ± 0.52%; percentage of EdU-negative (MCF7; [6]): 26.6 ± 1.7%; percentage of EdU-negative (MCF7; [7]): 27.1 ± 2.8% |
